Measured values published in FireProtDB (doi:10.1073/pnas.0910421107).

B1: Ribose import binding protein RbsB, P02925 (parent)
chain: MNMKKLATLVSAVALSATVSANAMAKDTIALVVSTLNNPFFVSLKDGAQKEADKLGYNLVVLDSQNNPAKELANVQDLTVRGTKILLINPTDSDAVGNAVKMANQANIPVITLDRQATKGEVVSHIASDNVLGGKIAGDYIAKKAGEGAKVIELQGIAGTSAARERGEGFQQAVAAHKFNVLASQPADFDRIKGLNVMQNLLTAHPDVQAVFAQNDEMALGALRALQTAGKSDVMVVGFDGTPDGEKAVNDGKLAATIAQLPDQIGAKGVETADKVLKGEKVQAKYPVDLKLVVKQ

Variants of: B1
Settings: Escherichia coli (strain K12), pH 7.6, Thermal, MOPS 25 mM, Potassium chloride 100 mM, structure 2DRI, whole UniProt chain shown
[1] = 25 °C, Quantitative cysteine reactivity
[2] = Quantitative cysteine reactivity

| Variant | unfolding enthalpy (van 't Hoff) [1] [kcal/mol] | unfolding free energy [1] [kcal/mol] | Tm (Activity) [°C] | change of melting temperature, mutant - wild type (higher = more stable) (Activity) [°C] | Tm [2] [°C] | change of melting temperature, mutant - wild type (higher = more stable) [2] [°C] | ddG of mutation (higher = less stable) (25 °C, Activity) [kcal/mol] | unfolding enthalpy (van 't Hoff) (25 °C, Activity) [kcal/mol] | unfolding free energy (25 °C, Activity) [kcal/mol] |
| --- | --- | --- | --- | --- | --- | --- | --- | --- | --- |
| MNMKKLATLVSAVALSATVSANAMAKDTIALVVSTLNNPFFVSLKDGAQKEADKLGYNLVVLDSQNNPAKELANVQDLTVRGTKILLINPTDSDAVGNAVKMANQANIPVITLDRQATKGEVVSHIASDNVLGGKIAGDYIAKKAGEGAKVIELQGIAGTSAARERGEGFQQAVAAHKFNVLASQPADFDRIKGLNVMQNLLTAHPDVQAVFCQNDEMALGALRALQTAGKSDVMVVGFDGTPDGEKAVNDGKLAATIAQLPDQIGAKGVETADKVLKGEKVQAKYPVDLKLVVKQ [A213C] | 91 | 4.1 | 56 | -6.6 | 56 | -6.6 | – | – | – |
| MNMKKLATLVSAVALSATVSANAMAKDTIALVVSTLNNPFFVSLKDGAQKEADKLGYNLVVLDSQNNPAKELANVQDLTVRGTKILCINPTDSDAVGNAVKMANQANIPVITLDRQATKGEVVSHIASDNVLGGKIAGDYIAKKAGEGAKVIELQGIAGTSAARERGEGFQQAVAAHKFNVLASQPADFDRIKGLNVMQNLLTAHPDVQAVFAQNDEMALGALRALQTAGKSDVMVVGFDGTPDGEKAVNDGKLAATIAQLPDQIGAKGVETADKVLKGEKVQAKYPVDLKLVVKQ [L87C] | 81 | 3.2 | 54 | -8.6 | 54 | -8.6 | 2.7 | 81 | 3.2 |
